Experimental findings from article PMC12373785, “Biochemical characterisation supports a central role for Oep80 from Arabidopsis thaliana in chloroplastic β-barrel protein assembly” (Communications Biology, 2025) are described below.

As a reminder, the stoichiometry N is the number of molecules, sites or subunits per partner or assembly.

The chains are these.
B4: Oep80^β-6×His (β-barrel domain of Arabidopsis thaliana Oep80, C-terminal 6×His) (domain or fragment, A. thaliana, UniProt Q9C5J8 398-732, looked up)
chain: SGGFSAGGGISSGITSGPLSGLIGSFAYSHRNLFGRNQKLNVSLERGQIDSIFRINYTDPWIEGDDKRTSRSIMVQNSRTPGNLVHGNQPDNSSLTIGRVTAGVEYSRPFRPKWNGTAGLIFQHAGARDEQGNPIIKDFYSSPLTASGKPHDETMLAKLESIYTGSGDQGSTMFAFNMEQGLPVLPEWLCFNRVTGRARKGIHIGPARFLFSLSGGHVVGKFSPHEAFVIGGTNSVRGYEEGAVGSGRSYVVGSGELSFPVRGPVEGVIFTDYGTDMGSGSTVPGDPAGARLKPGSGYGYGLGVRVDSPLGPLRLEYAFNDQHAGRFHFGVGLRN
notes: AtOep80 (also known as Toc75-V), A. thaliana, β barrel domain, residues 398-732; Mostly dimeric in solution by native MS; Cloned in modified Pet15b for the C-terminal 6×His; also called AtOep80 β barrel domain; Toc75-V β-barrel domain; not shown: His6, C-terminal, kept

Series [1] addresses Oep80^β mutant with the Oep21a β-1 peptide sequence covalently attached via a flexible GS linker (A. thaliana) (UniProt Q9C5J8). In words: native MS; protein alone, buffer-exchanged into 200 mM ammonium acetate pH 8.0, 0.5% C8E4; for the oxidised C587S/S408C/G727C mutant 0.1 mM CuSO4 pre-incubated 4 h before buffer exchange; monomer and dimer charge state series.
The target of series [2] is B4. The series can be described thus: native MS; 100 µM peptide with 7 µM Oep80^β-6×His in 200 mM ammonium acetate pH 8.0, 0.5% C8E4; peptide-bound relative to unbound species, n = 4. Particulars: both partners purified.
Series [3] concerns the molecule itself. In words: native MS; protein alone, buffer-exchanged into 200 mM ammonium acetate pH 8.0, 0.5% C8E4; for the oxidised C587S/S408C/G727C mutant 0.1 mM CuSO4 pre-incubated 4 h before buffer exchange; monomer and dimer charge state series.

Take “Oep80^β mutant with the Oep21a β-1 peptide sequence covalently attached via a flexible GS linker (from UniProt Q9C5J8 398-732)”: in series [1], the stoichiometry N was determined as 2.

B1: Oep21a β-1 wild-type peptide (peptide)
peptide: GKWNVRYDL
notes: also called Oep21a β-signal peptide; Oep21a β-1 w.t; source: synthetic peptide, bought: Proteogenix (99% purity)
In the case of B1, the binding result in series [2] is listed as “binds”.

B2: Oep21a β-1 D-to-E peptide (peptide)
peptide: GKWNVRYEL
notes: A. thaliana Oep21a β-1, residues 159-167, penultimate residue D changed to E; also called D-to-E mutation; source: synthetic peptide, bought: Proteogenix (99% purity)
B2: the binding result in series [2] is “binds”.

B3: Oep21a β-1 D-to-A peptide (peptide)
peptide: GKWNVRYAL
notes: A. thaliana Oep21a β-1, residues 159-167, penultimate residue D changed to A; also called D-to-A mutant; source: synthetic peptide, bought: Proteogenix (99% purity)
With B3, in series [2], the binding result is on record as “binds”.
For B4, in series [3], the “stoichiometry N” value was determined as 2.

B5: Oep80^β C587S/S408C/G727C (domain or fragment, A. thaliana, UniProt Q9C5J8 398-732, looked up)
chain: SGGFSAGGGICSGITSGPLSGLIGSFAYSHRNLFGRNQKLNVSLERGQIDSIFRINYTDPWIEGDDKRTSRSIMVQNSRTPGNLVHGNQPDNSSLTIGRVTAGVEYSRPFRPKWNGTAGLIFQHAGARDEQGNPIIKDFYSSPLTASGKPHDETMLAKLESIYTGSGDQGSTMFAFNMEQGLPVLPEWLSFNRVTGRARKGIHIGPARFLFSLSGGHVVGKFSPHEAFVIGGTNSVRGYEEGAVGSGRSYVVGSGELSFPVRGPVEGVIFTDYGTDMGSGSTVPGDPAGARLKPGSGYGYGLGVRVDSPLGPLRLEYAFNDQHAGRFHFCVGLRN
modifications: intramolecular disulfide between the introduced cysteines 408 and 727 (after Cu2+ incubation)
notes: AtOep80, A. thaliana, β barrel domain, residues 398-732, with native cysteine C587 removed and cysteines introduced in the β1 and β-1 strands
As for B5, the “stoichiometry N” value in series [3] is 2.

B6: untagged Oep80^β (6×His-Oep80^β after thrombin cleavage) (domain or fragment, A. thaliana, UniProt Q9C5J8 398-732, looked up)
chain: SGGFSAGGGISSGITSGPLSGLIGSFAYSHRNLFGRNQKLNVSLERGQIDSIFRINYTDPWIEGDDKRTSRSIMVQNSRTPGNLVHGNQPDNSSLTIGRVTAGVEYSRPFRPKWNGTAGLIFQHAGARDEQGNPIIKDFYSSPLTASGKPHDETMLAKLESIYTGSGDQGSTMFAFNMEQGLPVLPEWLCFNRVTGRARKGIHIGPARFLFSLSGGHVVGKFSPHEAFVIGGTNSVRGYEEGAVGSGRSYVVGSGELSFPVRGPVEGVIFTDYGTDMGSGSTVPGDPAGARLKPGSGYGYGLGVRVDSPLGPLRLEYAFNDQHAGRFHFGVGLRN
notes: AtOep80 (Toc75-V), A. thaliana, β barrel domain, residues 398-732; also called tag-free Oep80^β; not shown: His6, N-terminal, cleaved
Consider B6, for which the “stoichiometry N” value in series [3] stood at 2.

B7: 6×His-Oep80^β (N-terminally tagged β-barrel domain of A. thaliana Oep80) (domain or fragment, UniProt Q9C5J8 398-732, looked up)
chain: SGGFSAGGGISSGITSGPLSGLIGSFAYSHRNLFGRNQKLNVSLERGQIDSIFRINYTDPWIEGDDKRTSRSIMVQNSRTPGNLVHGNQPDNSSLTIGRVTAGVEYSRPFRPKWNGTAGLIFQHAGARDEQGNPIIKDFYSSPLTASGKPHDETMLAKLESIYTGSGDQGSTMFAFNMEQGLPVLPEWLCFNRVTGRARKGIHIGPARFLFSLSGGHVVGKFSPHEAFVIGGTNSVRGYEEGAVGSGRSYVVGSGELSFPVRGPVEGVIFTDYGTDMGSGSTVPGDPAGARLKPGSGYGYGLGVRVDSPLGPLRLEYAFNDQHAGRFHFGVGLRN
notes: AtOep80 (Toc75-V), A. thaliana, β barrel domain, residues 398-732; Cloned in Pet28a (N-terminal 6×His, removable by thrombin); also called tagged Oep80^β; 6×His-tagged version; not shown: His6, N-terminal, kept
Consider B7, for which, in series [3], the “stoichiometry N” value is 2.
